Assay results as given in the supplement of paper PMC10065799, “High-throughput profiling of sequence recognition by tyrosine kinases and SH2 domains using bacterial peptide display” (eLife, 2023).

Key:
AncSZ = assay: phosphorylation enrichment, bacterial display (enrichment ratio); higher = better substrate or ligand; peptides without Tyr show the background
EPHB1 = EPHB1 (UniProt P54762); assay: as above
EPHB2 = EPHB2 (UniProt P29323); assay: as above
FGFR1 = FGFR1 (UniProt P11362); assay: as above
FGFR3 = FGFR3 (UniProt P22607); assay: as above
Fer (mouse) = assay: as above
Fes = Fes (UniProt P07332); assay: as above
Fyn = Fyn (UniProt P06241); assay: as above
Hck = Hck (UniProt P08631); assay: as above
Jak2 = Jak2 (UniProt O60674); assay: as above
MERTK = MERTK (UniProt Q12866); assay: as above
c-Abl (mouse) = assay: as above
c-Src = assay: as above
Grb2 SH2 = Grb2 SH2 (UniProt P62993); assay: SH2 binding enrichment of the phosphorylated peptide, bacterial display (enrichment ratio); higher = better substrate or ligand; peptides without Tyr show the background
SHP2-C SH2 = assay: as above
c-Src SH2 = assay: as above
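Wherever SH2 binding enrichment of the phosphorylated peptide, bacterial display is given: peptide library displayed on the E. coli surface as eCPX fusions, selected cells deep-sequenced, score is each peptide's frequency after selection divided by its frequency in the input.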
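Wherever phosphorylation enrichment, bacterial display is given: 11-residue human phosphosite peptides and single-mutation variants displayed on the E. coli surface, counted by deep sequencing, each peptide's frequency after selection divided by its frequency in the unselected input library; frequency after pTyr selection over input frequency; kinase dosed for 20-30% of maximal phosphorylation in three min.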

Chain of MERTK (Q12866 whole entry, looked up): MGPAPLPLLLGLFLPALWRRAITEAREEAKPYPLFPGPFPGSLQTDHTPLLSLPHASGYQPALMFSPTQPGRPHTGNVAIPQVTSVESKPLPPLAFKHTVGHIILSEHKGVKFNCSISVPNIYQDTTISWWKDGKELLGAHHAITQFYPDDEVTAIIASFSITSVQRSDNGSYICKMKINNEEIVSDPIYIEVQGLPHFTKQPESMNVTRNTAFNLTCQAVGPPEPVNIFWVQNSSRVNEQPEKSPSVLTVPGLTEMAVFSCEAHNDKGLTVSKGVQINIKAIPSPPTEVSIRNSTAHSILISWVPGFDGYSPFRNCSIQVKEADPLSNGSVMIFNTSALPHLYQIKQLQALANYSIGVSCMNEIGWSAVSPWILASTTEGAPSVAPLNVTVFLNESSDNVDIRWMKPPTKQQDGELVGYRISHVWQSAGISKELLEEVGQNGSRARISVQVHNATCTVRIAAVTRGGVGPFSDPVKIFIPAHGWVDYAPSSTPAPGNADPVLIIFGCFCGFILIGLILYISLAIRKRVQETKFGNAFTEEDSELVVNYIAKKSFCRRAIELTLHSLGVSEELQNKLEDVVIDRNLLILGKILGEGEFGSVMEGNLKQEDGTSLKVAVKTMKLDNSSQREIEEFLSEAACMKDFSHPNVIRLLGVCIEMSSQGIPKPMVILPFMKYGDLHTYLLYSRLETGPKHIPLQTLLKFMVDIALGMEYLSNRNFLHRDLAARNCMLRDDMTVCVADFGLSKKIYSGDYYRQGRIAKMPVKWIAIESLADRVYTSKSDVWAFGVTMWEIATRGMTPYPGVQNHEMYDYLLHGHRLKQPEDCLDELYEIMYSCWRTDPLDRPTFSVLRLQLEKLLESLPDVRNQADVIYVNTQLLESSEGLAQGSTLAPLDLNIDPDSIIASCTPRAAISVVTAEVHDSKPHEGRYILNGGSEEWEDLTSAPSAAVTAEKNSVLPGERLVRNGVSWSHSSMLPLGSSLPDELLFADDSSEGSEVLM
Chain of Hck (P08631 whole entry, looked up): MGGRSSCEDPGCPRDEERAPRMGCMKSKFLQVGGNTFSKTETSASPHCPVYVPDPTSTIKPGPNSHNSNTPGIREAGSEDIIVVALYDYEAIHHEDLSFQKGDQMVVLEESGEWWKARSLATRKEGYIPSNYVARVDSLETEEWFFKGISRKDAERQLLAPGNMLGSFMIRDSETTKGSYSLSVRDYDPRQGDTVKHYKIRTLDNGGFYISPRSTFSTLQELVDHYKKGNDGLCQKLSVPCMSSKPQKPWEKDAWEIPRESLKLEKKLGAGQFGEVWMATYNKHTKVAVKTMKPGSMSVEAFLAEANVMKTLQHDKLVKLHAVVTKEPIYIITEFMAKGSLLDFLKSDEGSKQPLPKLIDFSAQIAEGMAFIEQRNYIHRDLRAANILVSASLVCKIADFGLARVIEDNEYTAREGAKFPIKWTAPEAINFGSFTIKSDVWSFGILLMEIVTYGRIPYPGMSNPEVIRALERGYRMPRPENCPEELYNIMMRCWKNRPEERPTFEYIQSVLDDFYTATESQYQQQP
Chain of FGFR1 (P11362 whole entry, looked up): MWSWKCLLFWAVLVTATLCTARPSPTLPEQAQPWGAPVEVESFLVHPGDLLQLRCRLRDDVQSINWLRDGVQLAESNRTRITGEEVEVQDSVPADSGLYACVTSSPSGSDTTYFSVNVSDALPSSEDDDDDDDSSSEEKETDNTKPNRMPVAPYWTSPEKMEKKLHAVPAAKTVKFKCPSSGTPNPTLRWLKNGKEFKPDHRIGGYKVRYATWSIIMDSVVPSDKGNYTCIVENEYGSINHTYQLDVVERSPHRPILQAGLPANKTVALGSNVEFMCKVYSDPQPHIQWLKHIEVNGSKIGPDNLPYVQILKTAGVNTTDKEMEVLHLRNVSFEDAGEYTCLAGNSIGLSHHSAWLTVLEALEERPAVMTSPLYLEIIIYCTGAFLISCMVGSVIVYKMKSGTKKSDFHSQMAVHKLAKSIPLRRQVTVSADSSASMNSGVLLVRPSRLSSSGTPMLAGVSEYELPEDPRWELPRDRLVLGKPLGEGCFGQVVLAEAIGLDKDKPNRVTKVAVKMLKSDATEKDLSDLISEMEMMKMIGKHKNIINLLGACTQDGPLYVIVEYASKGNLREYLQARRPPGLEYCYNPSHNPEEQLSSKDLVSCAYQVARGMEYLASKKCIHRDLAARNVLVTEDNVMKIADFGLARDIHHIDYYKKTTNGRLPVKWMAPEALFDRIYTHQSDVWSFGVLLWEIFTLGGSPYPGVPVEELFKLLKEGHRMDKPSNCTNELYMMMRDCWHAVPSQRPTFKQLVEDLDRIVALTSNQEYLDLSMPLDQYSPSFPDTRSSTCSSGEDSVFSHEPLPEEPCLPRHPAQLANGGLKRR
Chain of Fes (P07332 whole entry, looked up): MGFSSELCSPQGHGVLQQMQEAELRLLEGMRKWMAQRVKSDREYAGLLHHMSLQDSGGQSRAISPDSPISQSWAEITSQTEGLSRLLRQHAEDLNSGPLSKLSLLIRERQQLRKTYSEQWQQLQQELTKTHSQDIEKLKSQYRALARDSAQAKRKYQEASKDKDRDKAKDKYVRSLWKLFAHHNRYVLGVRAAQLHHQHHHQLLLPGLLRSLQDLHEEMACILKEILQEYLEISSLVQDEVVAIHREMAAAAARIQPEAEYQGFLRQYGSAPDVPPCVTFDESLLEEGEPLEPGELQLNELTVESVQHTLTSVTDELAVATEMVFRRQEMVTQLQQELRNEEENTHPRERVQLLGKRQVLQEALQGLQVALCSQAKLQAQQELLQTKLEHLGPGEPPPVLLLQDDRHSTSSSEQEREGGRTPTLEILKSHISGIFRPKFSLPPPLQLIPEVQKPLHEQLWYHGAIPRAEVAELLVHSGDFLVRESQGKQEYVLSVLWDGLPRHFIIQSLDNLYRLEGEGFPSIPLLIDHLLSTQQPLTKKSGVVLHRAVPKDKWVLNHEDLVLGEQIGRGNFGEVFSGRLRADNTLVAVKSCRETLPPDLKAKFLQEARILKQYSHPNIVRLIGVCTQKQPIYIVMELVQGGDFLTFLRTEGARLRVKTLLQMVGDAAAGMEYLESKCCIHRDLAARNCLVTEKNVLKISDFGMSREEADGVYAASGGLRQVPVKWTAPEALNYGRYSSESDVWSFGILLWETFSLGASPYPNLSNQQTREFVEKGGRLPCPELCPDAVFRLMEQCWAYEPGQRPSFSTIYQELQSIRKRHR
Chain of EPHB2 (P29323 whole entry, looked up): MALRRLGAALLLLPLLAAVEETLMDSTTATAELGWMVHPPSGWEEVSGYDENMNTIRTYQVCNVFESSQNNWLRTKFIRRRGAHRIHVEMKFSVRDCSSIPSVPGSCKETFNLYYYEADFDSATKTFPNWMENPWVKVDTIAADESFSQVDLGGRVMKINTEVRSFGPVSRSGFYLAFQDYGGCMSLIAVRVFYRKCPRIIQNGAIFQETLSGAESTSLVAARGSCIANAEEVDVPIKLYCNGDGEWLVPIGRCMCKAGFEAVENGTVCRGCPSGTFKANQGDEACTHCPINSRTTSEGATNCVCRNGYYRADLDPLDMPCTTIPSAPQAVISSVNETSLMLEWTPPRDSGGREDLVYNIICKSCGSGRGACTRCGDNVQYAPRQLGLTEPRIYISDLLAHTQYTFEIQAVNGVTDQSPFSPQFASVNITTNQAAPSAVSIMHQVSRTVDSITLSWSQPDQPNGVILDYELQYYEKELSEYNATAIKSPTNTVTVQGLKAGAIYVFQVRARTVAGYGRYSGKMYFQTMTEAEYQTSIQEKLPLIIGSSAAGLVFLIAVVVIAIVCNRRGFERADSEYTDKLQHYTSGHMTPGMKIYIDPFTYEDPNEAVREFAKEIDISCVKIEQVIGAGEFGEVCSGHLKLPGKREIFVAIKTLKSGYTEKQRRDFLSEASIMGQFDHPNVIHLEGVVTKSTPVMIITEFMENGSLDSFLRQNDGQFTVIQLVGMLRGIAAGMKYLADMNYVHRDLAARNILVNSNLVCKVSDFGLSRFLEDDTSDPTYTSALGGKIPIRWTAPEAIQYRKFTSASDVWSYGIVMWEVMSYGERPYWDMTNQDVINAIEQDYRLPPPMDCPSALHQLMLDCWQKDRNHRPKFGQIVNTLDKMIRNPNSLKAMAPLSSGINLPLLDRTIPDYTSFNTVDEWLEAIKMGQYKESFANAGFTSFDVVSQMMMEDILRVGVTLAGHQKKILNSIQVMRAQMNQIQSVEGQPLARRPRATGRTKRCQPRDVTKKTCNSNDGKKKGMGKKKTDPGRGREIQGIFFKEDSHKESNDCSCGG
Chain of FGFR3 (P22607 whole entry, looked up): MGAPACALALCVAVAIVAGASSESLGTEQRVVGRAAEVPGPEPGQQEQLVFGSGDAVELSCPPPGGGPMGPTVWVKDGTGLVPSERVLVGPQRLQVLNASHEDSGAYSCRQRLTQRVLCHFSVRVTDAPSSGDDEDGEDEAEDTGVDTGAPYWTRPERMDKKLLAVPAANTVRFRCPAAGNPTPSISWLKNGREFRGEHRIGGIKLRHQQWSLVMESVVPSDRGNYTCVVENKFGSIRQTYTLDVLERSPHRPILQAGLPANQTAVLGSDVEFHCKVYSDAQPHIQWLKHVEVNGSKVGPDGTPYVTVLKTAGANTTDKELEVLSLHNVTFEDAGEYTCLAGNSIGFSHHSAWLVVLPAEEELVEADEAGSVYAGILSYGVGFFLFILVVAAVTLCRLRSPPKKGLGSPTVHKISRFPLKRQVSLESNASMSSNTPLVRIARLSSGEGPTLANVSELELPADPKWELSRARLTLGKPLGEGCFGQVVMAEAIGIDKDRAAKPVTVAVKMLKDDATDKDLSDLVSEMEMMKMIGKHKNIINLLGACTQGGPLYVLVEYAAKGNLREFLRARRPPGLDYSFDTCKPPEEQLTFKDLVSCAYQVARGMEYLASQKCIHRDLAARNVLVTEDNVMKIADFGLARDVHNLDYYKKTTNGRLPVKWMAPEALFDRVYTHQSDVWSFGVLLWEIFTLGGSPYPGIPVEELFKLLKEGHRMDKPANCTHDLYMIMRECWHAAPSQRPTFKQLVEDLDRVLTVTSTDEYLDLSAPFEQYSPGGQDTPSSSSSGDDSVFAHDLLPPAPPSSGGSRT

SH2 binding enrichment (Grb2 SH2)	SH2 binding enrichment (SHP2-C SH2)	SH2 binding enrichment (c-Src SH2)	Sequence	phosphorylation enrichment (AncSZ)	phosphorylation enrichment (EPHB1)	phosphorylation enrichment (EPHB2)	phosphorylation enrichment (FGFR1)	phosphorylation enrichment (FGFR3)	phosphorylation enrichment (Fer (mouse))	phosphorylation enrichment (Fes)	phosphorylation enrichment (Fyn)	phosphorylation enrichment (Hck)	phosphorylation enrichment (Jak2)	phosphorylation enrichment (MERTK)	phosphorylation enrichment (c-Abl (mouse))	phosphorylation enrichment (c-Src)
0.985	0.735	0.569	RHAASYSSDSE [REPS1_Y116]	0.702	0.382	0.381	0.513	0.611	0.578	0.806	0.737	0.41	1.19	0.51	0.627	0.607
0.897	0.642	0.43	DLQDENDFKCK [STAT1_Y170_Y170N]	1.42	0.621	0.737	0.568	0.853	0.612	1.86	0.548	0.602	1.55	0.415	0.812	0.498
0.791	0.866	0.399	LERFIYNPEEF [HLA-DPB1_Y59_R61P_YF]	2.02	0.738	0.708	0.934	1.71	0.927	1.75	1.75	1.33	1.32	0.618	1.09	2.4

More lines, now with the values behind:

Sequence	SH2 binding enrichment (Grb2 SH2)	SH2 binding enrichment (SHP2-C SH2)	SH2 binding enrichment (c-Src SH2)	phosphorylation enrichment (AncSZ)	phosphorylation enrichment (EPHB1)	phosphorylation enrichment (EPHB2)	phosphorylation enrichment (FGFR1)	phosphorylation enrichment (FGFR3)	phosphorylation enrichment (Fer (mouse))	phosphorylation enrichment (Fes)	phosphorylation enrichment (Fyn)	phosphorylation enrichment (Hck)	phosphorylation enrichment (Jak2)	phosphorylation enrichment (MERTK)	phosphorylation enrichment (c-Abl (mouse))	phosphorylation enrichment (c-Src)
PICEGYALPHA [ACTC1_Y171_Y168C]	0.951	0.918	4.74	0.946	0.488	0.587	0.682	0.598	0.577	0.804	0.707	0.535	0.453	0.445	0.897	0.406
KRGIDYILRHM [FRMD1_Y225]	1.95	1.99	1.68	0.792	0.494	0.463	0.457	0.592	0.415	0.872	0.414	0.396	0.654	0.396	0.567	0.387
GMAHNYRNRSQ [AASS_Y188_S191R]	0.703	0.392	0.48	0.599	0.414	0.388	0.344	0.401	0.358	0.629	0.487	0.523	0.488	0.466	0.57	0.481
GFPVHYTDVSN [DNMT3B_Y815]	0.793	7.67	3.96	0.661	0.477	0.485	0.439	0.686	0.708	0.653	0.43	0.433	0.51	0.526	0.5	0.398
NDHHVYLEGTL [ALDOB_Y223]	0.995	0.646	1.72	0.718	0.494	0.509	0.494	0.578	0.46	0.756	0.468	0.53	0.662	0.435	0.555	0.421
